Our source for the binding score values is publication PMC11098746 (2024).

This test has as its target Circumsporozoite protein (CSP) (Plasmodium falciparum (isolate 3D7), UniProt Q7K740). Briefly: AVEXIS screen signal:noise (double-corrected).

Sequence of Circumsporozoite protein (CSP) (Q7K740 19-374): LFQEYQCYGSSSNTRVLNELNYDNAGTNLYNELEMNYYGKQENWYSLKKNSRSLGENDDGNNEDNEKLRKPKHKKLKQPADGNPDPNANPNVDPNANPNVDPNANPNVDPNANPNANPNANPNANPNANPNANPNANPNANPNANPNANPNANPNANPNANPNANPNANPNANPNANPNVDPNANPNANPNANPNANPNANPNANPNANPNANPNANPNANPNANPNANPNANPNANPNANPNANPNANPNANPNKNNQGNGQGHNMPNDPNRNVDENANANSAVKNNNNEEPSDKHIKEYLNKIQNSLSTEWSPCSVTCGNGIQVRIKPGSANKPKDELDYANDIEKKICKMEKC

B1: ADP284 (protein)
chain: SNAYSSPSVVLASYNHDGTRNILDDFREAYFWLRQNTDEHARVMSWWDYGYQIAGMANRTTLVDNNTWNNSHIALVGKAMSSNETAAYKIMRTLDVDYVLVIFGGVIGYSGDDINKFLWMVRIAEGEHPKDIRESDYFTPQGEFRVDKAGSPTLLNCLMYKMSYYRFGEMQLDFRTPPGFDRTRNAEIGNKDIKFKHLEEAFTSEHWLVRIYKVKAPDNRETLDHKPRVTNIFPKQKYLSKKTTKRKRGYIKNKLVFKKGKKISKKTV
modifications: bait human Fc-tagged dimer
As to B1, the binding score amounted to 0.868.

B2: ADP151 (protein)
chain: MALTLSVLICLGLSVGPRTCVQAGTLPKPTLWAEPASVIARGKPVTLWCQGPLETEEYRLDKEGLPWARKRQNPLEPGAKAKFHIPSTVYDSAGRYRCYYETPAGWSEPSDPLELVATGFYAEPTLLALPSPVVASGGNVTLQCDTLDGLLTFVLVEEEQKLPRTLYSQKLPKGPSQALFPVGPVTPSCRWRFRCYYYYRKNPQVWSNPSDLLEILVPGVSRKPSLLIPQGSVVARGGSLTLQCRSDVGYDIFVLYKEGEHDLVQGSGQQPQAGLSQANFTLGPVSRSHGGQYRCYGAHNLSPRWSAPSDPLDILIAGLIPDIPALSVQPGPKVASGENVTLLCQSWHQIDTFFLTKEGAAHPPLCLKSKYQSYRHQAEFSMSPVTSAQGGTYRCYSAIRSYPYLLSSPSYPQELVVSGPSGDPSLSPTGSTPTPGPEDQPLTPTGLDPQSGLG
modifications: bait human Fc-tagged dimer
Molecule B2 displayed a binding score of 1.33.

B3: ADP379 (protein)
chain: PCPDRPASQRMWRIDYSAAVIYDFLAVDDINGDRIQDVLFLYKNTNSSNNFSRSCVDEGFSSPCTFAAAVSGANGSTLWERPVAQDVALVECAVPQPRGSEAPSACILVGRPSSFIAVNLFTGETLWNHSSSFSGNASILSPLLQVPDVDGDGAPDLLVLTQEREEVSGHLYSGSTGHQIGLRGSLGVDGESGFLLHVTRTGAHYILFPCASSLCGCSVKGLYEKVTGSGGPFKSDPHWESMLNATTRRMLSHSSGAVRYLMHVPGNAGADVLLVGSEAFVLLDGQELTPRWTPKAAHVLRKPIFGRYKPDTLAVAVENGTGTDRQILFLDLGTGAVLCSLALPSLPGGPLSASLPTADHRSAFFFWGLHELGSTSETETGEARHSLYMFHPTLPRVLLELANVSTHIVAFDAVLFEPSRHAAYILLTGPADSEAPGLVSVIKHKVRDLVPSSRVVRLGEGGPDSDQAIRDRFSRLRYQSEA
modifications: bait human Fc-tagged dimer
B3 displayed a binding score of 2.44.

B4: ADP320 (protein)
chain: MAAAPGLLVWLLVLRLPWRVPGQLDPSTGRRFSEHKLCADDECSMLMYRGEALEDFTGPDCRFVNFKKGDPVYVYYKLARGWPEVWAGSVGRTFGYFPKDLIQVVHEYTKEELQVPTDETDFVCFDGGRDDFHNYNVEELLGFLELYNSAATDSEKAVEKTLQDMEKNPELSKEREPEPEPVEANSEESDSVFSENTEDLQEQFTTQKHHSHANSQANHAQGEQASFESFEEMLQDKLKVPESENNKTSNSSQVSNEQDKIDAYKLLKKEMTLDLKTKFGSTADALVSDDETTRLVTSLEDDFDEELDTEYYAVGKEDEENQEDFDELPLLTFTDGEDMKTPAKSGVEKYPTDKEQNSNEEDKVQLTVPPGIKNDDKNILTTWGDTIFSIVTGGEETRDTMDLESSSSEEEKEDDDDALVPDSKQGKPQSATDYSDPDNVDDGLFIVDIPKTNNDKEVNAEHHIKGKGRGVQESKRGLVQDKTELEDENQEGMTVHSSVHSNNLNSMPAAEKGKDTLKSAYDDTENDLKGAAIHISKGMLHEEKPGEQILEGGSESESAQKAAGNQMNDRKIQQESLGSAPLMGDDHPNASRDSVEGDALVNGAKLHTLSVEHQREELKEELVLKTQNQPRFSSPDEIDLPRELEDEVPILGRNLPWQQERDVAATASKQMSEKIRLSEGEAKEDSLDEEFFHHKAMQGTEVGQTDQTDSTGGPAFLSKVEEDDYPSEELLEDENAINAKRSKEKNPGNQGRQFDVNLQVPDRAVLGTIHPDPEIEESKQETSMILDSEKTSETAAKGVNTGGREPNTMVEKERPLADKKAQRPFERSDFSDSIKIQTPELGEVFQNKDSDYLKNDNPEEHLKTSGLAGEPEGELSKEDHENTEKYMGTESQGSAAAEPEDDSFHWTPHTSVEPGHSDKREDLLIISSFFKEQQSLQRFQKYFNVHELEALLQEMSSKLKSAQQESLPYNMEKVLDKVFRASESQILSIAEKMLDTRVAENRDLGMNENNIFEEAAVLDDIQDLIYFVRYKHSTAEETATLVMAPPLEEGLGGAMEEMQPLHEDNFSREKTAELNVQVPEEPTHLDQRVIGDTHASEVSQKPNTEKDLDPGPVTTEDTPMDAIDANKQPETAAEEPASVTPLENAILLIYSFMFYLTKSLVATLPD
modifications: bait human Fc-tagged dimer
Molecule B4 displayed a binding score of 1.04.
